Experimental data: patent publication US20220228142A1 (VERTEX PHARMACEUTICALS, published 2022)

Molecular target: 53BP1 (p53-binding protein 1) (human, UniProt Q12888 1-1972, limits assumed)
Assay: cell-based or functional assay

Chain of 53BP1 (p53-binding protein 1) (Q12888 whole entry): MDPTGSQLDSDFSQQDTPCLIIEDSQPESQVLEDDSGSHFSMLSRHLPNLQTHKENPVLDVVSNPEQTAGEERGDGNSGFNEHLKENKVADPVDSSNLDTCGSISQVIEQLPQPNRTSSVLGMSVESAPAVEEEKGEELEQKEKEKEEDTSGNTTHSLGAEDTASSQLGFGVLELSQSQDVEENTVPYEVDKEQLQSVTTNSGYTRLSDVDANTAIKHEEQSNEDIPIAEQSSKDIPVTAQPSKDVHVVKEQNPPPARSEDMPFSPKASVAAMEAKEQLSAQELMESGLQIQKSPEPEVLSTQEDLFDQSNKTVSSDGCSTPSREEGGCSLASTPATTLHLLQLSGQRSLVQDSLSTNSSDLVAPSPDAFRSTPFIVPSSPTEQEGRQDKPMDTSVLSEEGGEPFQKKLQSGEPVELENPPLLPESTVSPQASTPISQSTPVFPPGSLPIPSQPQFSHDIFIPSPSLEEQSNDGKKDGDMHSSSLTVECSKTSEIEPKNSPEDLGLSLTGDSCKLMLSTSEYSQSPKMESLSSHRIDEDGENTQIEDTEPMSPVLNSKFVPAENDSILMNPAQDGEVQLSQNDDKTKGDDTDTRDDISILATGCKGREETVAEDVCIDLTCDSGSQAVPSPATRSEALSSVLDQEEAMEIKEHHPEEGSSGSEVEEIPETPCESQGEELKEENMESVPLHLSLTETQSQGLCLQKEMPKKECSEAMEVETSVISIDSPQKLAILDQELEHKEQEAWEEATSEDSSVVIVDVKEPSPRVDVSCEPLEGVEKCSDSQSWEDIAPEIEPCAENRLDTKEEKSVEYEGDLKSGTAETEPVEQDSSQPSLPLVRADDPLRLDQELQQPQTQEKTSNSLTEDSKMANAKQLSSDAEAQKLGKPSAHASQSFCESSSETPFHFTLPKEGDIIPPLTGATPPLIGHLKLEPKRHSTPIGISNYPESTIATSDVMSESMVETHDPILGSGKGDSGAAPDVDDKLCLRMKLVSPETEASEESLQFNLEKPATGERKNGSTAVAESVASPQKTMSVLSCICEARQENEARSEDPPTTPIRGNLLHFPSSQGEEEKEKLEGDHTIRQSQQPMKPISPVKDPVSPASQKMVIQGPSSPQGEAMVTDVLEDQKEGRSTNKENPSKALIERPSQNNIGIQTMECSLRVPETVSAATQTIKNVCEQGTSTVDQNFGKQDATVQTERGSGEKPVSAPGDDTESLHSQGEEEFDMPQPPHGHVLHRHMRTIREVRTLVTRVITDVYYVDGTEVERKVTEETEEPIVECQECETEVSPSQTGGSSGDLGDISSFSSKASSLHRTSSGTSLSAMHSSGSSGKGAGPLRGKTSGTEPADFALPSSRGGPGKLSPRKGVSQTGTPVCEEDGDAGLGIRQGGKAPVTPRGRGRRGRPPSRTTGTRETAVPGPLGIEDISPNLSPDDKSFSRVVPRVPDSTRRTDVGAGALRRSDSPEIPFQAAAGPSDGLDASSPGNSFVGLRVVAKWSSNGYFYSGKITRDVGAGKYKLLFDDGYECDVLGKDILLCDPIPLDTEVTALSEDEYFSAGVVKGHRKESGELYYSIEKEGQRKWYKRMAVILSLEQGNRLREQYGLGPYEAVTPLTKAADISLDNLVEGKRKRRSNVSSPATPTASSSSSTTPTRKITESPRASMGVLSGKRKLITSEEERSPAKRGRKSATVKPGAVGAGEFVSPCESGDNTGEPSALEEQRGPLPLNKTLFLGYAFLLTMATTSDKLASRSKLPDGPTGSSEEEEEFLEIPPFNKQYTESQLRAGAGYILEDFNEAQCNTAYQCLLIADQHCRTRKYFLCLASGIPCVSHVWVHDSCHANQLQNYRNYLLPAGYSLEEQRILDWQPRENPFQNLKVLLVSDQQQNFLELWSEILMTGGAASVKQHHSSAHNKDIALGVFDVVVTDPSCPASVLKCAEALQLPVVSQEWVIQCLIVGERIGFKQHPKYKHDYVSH

B1: i53 polypeptide (polypeptide inhibitor of 53BP1) (designed binder)
chain: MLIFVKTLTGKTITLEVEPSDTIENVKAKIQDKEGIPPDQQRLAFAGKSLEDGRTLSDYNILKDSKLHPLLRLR
- INDELs due to NHEJ repair (+/-1 nt), T107 RNP+AAV.310, NGS: 1.3 fold reduction
